# Substitutions are numbered along the chain they refer to. Names and notes keep the numbering of the source.
# B1: Mcm3 (wild type), subunit of Saccharomyces cerevisiae Mcm2-7 (natural protein, S. cerevisiae, UniProt P24279 1-971, looked up)
# chain: MEGSTGFDGDATTFFAPDAVFGDRVRRFQEFLDTFTSYRDSVRSIQVYNSNNAANYNDDQDDADERDLLGDDDGDDLEKEKKAASSTSLNILPHRIIISLDDLREFDRSFWSGILVEPAYFIPPAEKALTDLADSMDDVPHPNASAVSSRHPWKLSFKGSFGAHALSPRTLTAQHLNKLVSVEGIVTKTSLVRPKLIRSVHYAAKTGRFHYRDYTDATTTLTTRIPTPAIYPTEDTEGNKLTTEYGYSTFIDHQRITVQEMPEMAPAGQLPRSIDVILDDDLVDKTKPGDRVNVVGVFKSLGAGGMNQSNSNTLIGFKTLILGNTVYPLHARSTGVAARQMLTDFDIRNINKLSKKKDIFDILSQSLAPSIYGHDHIKKAILLMLMGGVEKNLENGSHLRGDINILMVGDPSTAKSQLLRFVLNTASLAIATTGRGSSGVGLTAAVTTDRETGERRLEAGAMVLADRGVVCIDEFDKMTDVDRVAIHEVMEQQTVTIAKAGIHTTLNARCSVIAAANPVFGQYDVNRDPHQNIALPDSLLSRFDLLFVVTDDINEIRDRSISEHVLRTHRYLPPGYLEGEPVRERLNLSLAVGEDADINPEEHSNSGAGVENEGEDDEDHVFEKFNPLLQAGAKLAKNKGNYNGTEIPKLVTIPFLRKYVQYAKERVIPQLTQEAINVIVKNYTDLRNDDNTKKSPITARTLETLIRLATAHAKVRLSKTVNKVDAKVAANLLRFALLGEDIGNDIDEEESEYEEALSKRSPQKSPKKRQRVRQPASNSGSPIKSTPRRSTASSVNATPSSARRILRFQDDEQNAGEDDNDIMSPLPADEEAELQRRLQLGLRVSPRRREHLHAPEEGSSGPLTEVGTPRLPNVSSAGQDDEQQQSVISFDNVEPGTISTGRLSLISGIIARLMQTEIFEEESYPVASLFERINEELPEEEKFSAQEYLAGLKIMSDRNNLMVADDKVWRV
# notes: source: E. coli, purified, reconstituted into Mcm2-7 as described [27]
# B2: Mcm2, subunit of Saccharomyces cerevisiae Mcm2-7 (natural protein, S. cerevisiae, UniProt P29469 1-868, looked up)
# chain: MSDNRRRRREEDDSDSENELPPSSPQQHFRGGMNPVSSPIGSPDMINPEGDDNEVDDVPDIDEVEEQMNEVDLMDDNMYEDYAADHNRDRYDPDQVDDREQQELSLSERRRIDAQLNERDRLLRNVAYIDDEDEEQEGAAQLDEMGLPVQRRRRRRQYEDLENSDDDLLSDMDIDPLREELTLESLSNVKANSYSEWITQPNVSRTIARELKSFLLEYTDETGRSVYGARIRTLGEMNSESLEVNYRHLAESKAILALFLAKCPEEMLKIFDLVAMEATELHYPDYARIHSEIHVRISDFPTIYSLRELRESNLSSLVRVTGVVTRRTGVFPQLKYVKFNCLKCGSILGPFFQDSNEEIRISFCTNCKSKGPFRVNGEKTVYRNYQRVTLQEAPGTVPPGRLPRHREVILLADLVDVSKPGEEVEVTGIYKNNYDGNLNAKNGFPVFATIIEANSIKRREGNTANEGEEGLDVFSWTEEEEREFRKISRDRGIIDKIISSMAPSIYGHRDIKTAVACSLFGGVPKNVNGKHSIRGDINVLLLGDPGTAKSQILKYVEKTAHRAVFATGQGASAVGLTASVRKDPITKEWTLEGGALVLADKGVCLIDEFDKMNDQDRTSIHEAMEQQSISISKAGIVTTLQARCSIIAAANPNGGRYNSTLPLAQNVSLTEPILSRFDILCVVRDLVDEEADERLATFVVDSHVRSHPENDEDREGEELKNNGESAIEQGEDEINEQLNARQRRLQRQRKKEEEISPIPQELLMKYIHYARTKIYPKLHQMDMDKVSRVYADLRRESISTGSFPITVRHLESILRIAESFAKMRLSEFVSSYDLDRAIKVVVDSFVDAQKVSVRRQLRRSFAIYTLGH
# notes: Mcm2, S. cerevisiae, recombinant subunit; source: E. coli, purified, reconstituted into Mcm2-7 as described [27]
# B3: Mcm3_(K499A), Mcm3 with the PS1 hairpin mutation (natural protein, S. cerevisiae, UniProt P24279 1-971, looked up)
# chain: B1 chain with K499A
# notes: Mcm3, S. cerevisiae, K499A; NdeI-SacI fragment of mcm3_(K499A)-YCplac111 in pET24a (pMD466); also called the Mcm3 subunit of Mcm2-7_(3K499A); source: E. coli BL21 DE3 Codon+, purified (ammonium sulfate, Q Sepharose, ssDNA-Sepharose, MonoQ, MonoS)
# B4: Mcm4, subunit of Saccharomyces cerevisiae Mcm2-7 (natural protein, S. cerevisiae, UniProt P30665 1-933, looked up)
# chain: MSQQSSSPTKEDNNSSSPVVPNPDSVPPQLSSPALFYSSSSSQGDIYGRNNSQNLSQGEGNIRAAIGSSPLNFPSSSQRQNSDVFQSQGRQGRIRSSASASGRSRYHSDLRSDRALPTSSSSLGRNGQNRVHMRRNDIHTSDLSSPRRIVDFDTRSGVNTLDTSSSSAPPSEASEPLRIIWGTNVSIQECTTNFRNFLMSFKYKFRKILDEREEFINNTTDEELYYIKQLNEMRELGTSNLNLDARNLLAYKQTEDLYHQLLNYPQEVISIMDQTIKDCMVSLIVDNNLDYDLDEIETKFYKVRPYNVGSCKGMRELNPNDIDKLINLKGLVLRSTPVIPDMKVAFFKCNVCDHTMAVEIDRGVIQEPARCERIDCNEPNSMSLIHNRCSFADKQVIKLQETPDFVPDGQTPHSISLCVYDELVDSCRAGDRIEVTGTFRSIPIRANSRQRVLKSLYKTYVDVVHVKKVSDKRLDVDTSTIEQELMQNKVDHNEVEEVRQITDQDLAKIREVAAREDLYSLLARSIAPSIYELEDVKKGILLQLFGGTNKTFTKGGRYRGDINILLCGDPSTSKSQILQYVHKITPRGVYTSGKGSSAVGLTAYITRDVDTKQLVLESGALVLSDGGVCCIDEFDKMSDSTRSVLHEVMEQQTISIAKAGIITTLNARSSILASANPIGSRYNPNLPVTENIDLPPPLLSRFDLVYLVLDKVDEKNDRELAKHLTNLYLEDKPEHISQDDVLPVEFLTMYISYAKEHIHPIITEAAKTELVRAYVGMRKMGDDSRSDEKRITATTRQLESMIRLAEAHAKMKLKNVVELEDVQEAVRLIRSAIKDYATDPKTGKIDMNLVQTGKSVIQRKLQEDLSREIMNVLKDQASDSMSFNELIKQINEHSQDRVESSDIQEALSRLQQEDKVIVLGEGVRRSVRLNNRV
# notes: Mcm4, S. cerevisiae, recombinant subunit; source: E. coli, purified, reconstituted into Mcm2-7 as described [27]
# B5: Mcm7, subunit of Saccharomyces cerevisiae Mcm2-7 (natural protein, S. cerevisiae, UniProt P38132 1-845, looked up)
# chain: MSAALPSIQLPVDYNNLFNEITDFLVTFKQDTLSSDATRNENEDENLDAENIEQHLLEKGPKYMAMLQKVANRELNSVIIDLDDILQYQNEKFLQGTQADDLVSAIQQNANHFTELFCRAIDNNMPLPTKEIDYKDDVLDVILNQRRLRNERMLSDRTNEIRSENLMDTTMDPPSSMNDALREVVEDETELFPPNLTRRYFLYFKPLSQNCARRYRKKAISSKPLSVRQIKGDFLGQLITVRGIITRVSDVKPAVEVIAYTCDQCGYEVFQEVNSRTFTPLSECTSEECSQNQTKGQLFMSTRASKFSAFQECKIQELSQQVPVGHIPRSLNIHVNGTLVRSLSPGDIVDVTGIFLPAPYTGFKALKAGLLTETYLEAQFVRQHKKKFASFSLTSDVEERVMELITSGDVYNRLAKSIAPEIYGNLDVKKALLLLLVGGVDKRVGDGMKIRGDINVCLMGDPGVAKSQLLKAICKISPRGVYTTGKGSSGVGLTAAVMKDPVTDEMILEGGALVLADNGICCIDEFDKMDESDRTAIHEVMEQQTISISKAGINTTLNARTSILAAANPLYGRYNPRLSPLDNINLPAALLSRFDILFLMLDIPSRDDDEKLAEHVTYVHMHNKQPDLDFTPVEPSKMREYIAYAKTKRPVMSEAVNDYVVQAYIRLRQDSKREMDSKFSFGQATPRTLLGIIRLSQALAKLRLADMVDIDDVEEALRLVRVSKESLYQETNKSKEDESPTTKIFTIIKKMLQETGKNTLSYENIVKTVRLRGFTMLQLSNCIQEYSYLNVWHLINEGNTLKFVDDGTMDTDQEDSLVSTPKLAPQTTASANVSAQDSDIDLQDA
# notes: Mcm7, S. cerevisiae, recombinant subunit; source: E. coli, purified, reconstituted into Mcm2-7 as described [27]
# Tests used:
# Test in all cases: SEC; individual purified Mcm subunits mixed in equal molar ratios to reconstitute the hexameric complex; elution from a gel filtration column, fractions analysed by SDS-PAGE
# Conditions in all cases: both partners purified
# [1] = molecular target: T1, Mcm6, subunit of Saccharomyces cerevisiae Mcm2-7 (S. cerevisiae, UniProt P53091 1-1017)
# T1 construct: Mcm6, S. cerevisiae, recombinant subunit; source: E. coli, purified, reconstituted into Mcm2-7 as described [27]
# [2] = molecular target: B3
# [3] = molecular target: B1
# T1 sequence (P53091 whole entry): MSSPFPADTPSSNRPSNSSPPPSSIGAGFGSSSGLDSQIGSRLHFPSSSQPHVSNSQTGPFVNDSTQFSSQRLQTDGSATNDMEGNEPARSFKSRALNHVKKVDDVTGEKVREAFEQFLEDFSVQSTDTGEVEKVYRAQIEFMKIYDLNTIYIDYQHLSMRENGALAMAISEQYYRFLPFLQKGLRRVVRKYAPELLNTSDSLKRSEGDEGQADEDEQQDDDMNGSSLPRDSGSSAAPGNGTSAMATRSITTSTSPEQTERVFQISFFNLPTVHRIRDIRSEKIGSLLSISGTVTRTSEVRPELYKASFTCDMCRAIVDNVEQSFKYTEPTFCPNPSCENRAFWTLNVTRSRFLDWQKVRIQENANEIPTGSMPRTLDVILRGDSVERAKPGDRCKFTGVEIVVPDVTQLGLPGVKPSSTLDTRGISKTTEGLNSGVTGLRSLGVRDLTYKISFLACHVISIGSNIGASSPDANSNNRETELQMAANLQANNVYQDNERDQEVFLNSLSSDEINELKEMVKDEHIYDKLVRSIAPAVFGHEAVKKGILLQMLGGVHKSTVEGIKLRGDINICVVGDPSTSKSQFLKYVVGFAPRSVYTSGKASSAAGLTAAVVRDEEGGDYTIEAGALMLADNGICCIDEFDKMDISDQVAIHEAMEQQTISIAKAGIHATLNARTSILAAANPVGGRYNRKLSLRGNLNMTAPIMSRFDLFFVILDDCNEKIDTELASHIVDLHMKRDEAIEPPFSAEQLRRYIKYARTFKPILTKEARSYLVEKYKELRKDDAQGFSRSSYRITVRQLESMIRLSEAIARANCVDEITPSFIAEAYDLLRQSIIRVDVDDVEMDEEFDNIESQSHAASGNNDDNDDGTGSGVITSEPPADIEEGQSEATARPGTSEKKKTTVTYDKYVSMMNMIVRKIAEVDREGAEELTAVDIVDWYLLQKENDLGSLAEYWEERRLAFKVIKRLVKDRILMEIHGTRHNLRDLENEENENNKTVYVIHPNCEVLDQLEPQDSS
binding result [1],binding result [2],binding result [3],Binder
binds,,,B1
,binds,binds,B2
binds,,,B3
,binds,binds,B4
,binds,binds,B5

# From PMC3859580, “The PS1 Hairpin of Mcm3 Is Essential for Viability and for DNA Unwinding In Vitro” (PLoS ONE, 2013)
